Patent US8349320 (LA JOLLA INSTITUTE FOR ALLERGY AND IMMUNOLOGY, dated 2013)

Columns and labels:
[1] = molecular target: T1, human BTLA expressed on cells (human, UniProt Q7Z6A9 31-289); test: flow cytometry saturation binding, Fc fusion on cells expressing human BTLA (FIG. 3A)
T1 construct: whole, on cells; also called hBTLA

[2] = molecular target: T2, mouse BTLA expressed on cells (mouse, UniProt Q7TSA3 30-306); test: flow cytometry, graded hHVEM-Fc on cells expressing mouse BTLA (FIG. 3A)
T2 construct: whole, on cells; the GFP part is not described further; also called mBTLA
T2 sequence (looked up): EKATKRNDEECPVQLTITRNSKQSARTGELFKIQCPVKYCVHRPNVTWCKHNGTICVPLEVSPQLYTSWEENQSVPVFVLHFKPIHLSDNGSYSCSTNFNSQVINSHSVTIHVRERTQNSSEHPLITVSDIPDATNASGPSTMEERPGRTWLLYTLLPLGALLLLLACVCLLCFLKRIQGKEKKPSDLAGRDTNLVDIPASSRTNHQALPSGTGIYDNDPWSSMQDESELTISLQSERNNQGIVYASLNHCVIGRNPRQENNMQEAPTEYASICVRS

[3] = molecular target: T3, full length human LIGHT expressed on EL4 cells (human, UniProt O43557 1-240); test: flow cytometry saturation binding, Fc fusion on EL4 cells expressing human LIGHT
T3 construct: whole, on cells; also called EL4-hLIGHT; hLIGHT-EL4 cells
T3 sequence (O43557 whole entry, the tested form may be a part): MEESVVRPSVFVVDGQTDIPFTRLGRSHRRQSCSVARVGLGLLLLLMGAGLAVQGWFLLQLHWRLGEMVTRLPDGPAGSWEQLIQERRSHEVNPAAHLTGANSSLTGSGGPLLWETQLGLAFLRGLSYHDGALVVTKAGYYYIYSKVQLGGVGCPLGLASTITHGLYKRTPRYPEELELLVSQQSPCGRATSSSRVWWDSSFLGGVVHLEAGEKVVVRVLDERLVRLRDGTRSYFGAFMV

[4] = molecular target: T2, mouse BTLA expressed on cells; test: flow cytometry saturation binding, Fc fusion on cells expressing mouse BTLA (FIG. 3B)
[5] = molecular target: T1, human BTLA expressed on cells; test: flow cytometry saturation binding, Fc fusion on cells expressing human BTLA (FIG. 3B)

B1: human HVEM-Fc (Fc fusion, UniProt Q92956 39-202, looked up)
chain: LPSCKEDEYPVGSECCPKCSPGYRVKEACGELTGTVCEPCPPGTYIAHLNGLSKCLQCQMCDPAMGLRASRNCSRTENAVCGCSPGHFCIVQDGDHCAACRAYATSSPGQRVQKGGTESQDTLCQNCPPGTFSPNGTLEECQHQTKCSWLVTKAGAGTSSSHWV
modifications: in the FIG. 3H assay biotinylated with NHS-PEO4-Biotin, 2 biotin molecules per HVEM-Fc (sites not given)
notes: extracellular domain; Ecto domain of the TNFR fused to Fc of human IgG1; also called hHVEM-Fc; hHVEM:Fc; not shown: Fc region of human IgG1
Question: What does the source list for B1?
Answer: Kd [1]: 112 nM; binding result [2]: no binding; Kd [3]: 11 nM

B2: mouse HVEM-Fc (Fc fusion, UniProt Q80WM9 39-206, looked up)
chain: QPSCRQEEFLVGDECCPMCNPGYHVKQVCSEHTGTVCAPCPPQTYTAHANGLSKCLPCGVCDPDMGLLTWQECSSWKDTVCRCIPGYFCENQDGSHCSTCLQHTTCPPGQRVEKRGTHDQDTVCADCLTGTFSLGGTQEECLPWTNCSAFQQEVRRGTNSTDTTCSSQ
notes: extracellular domain; Expressed in insect cells (baculovirus); also called mHVEM-Fc; mHVEM:Fc; not shown: Fc region of human IgG1
Question: For B2, which Kd [4] is on record?
Answer: The Kd was 24 nM.

Question: What about the Kd [5] of the same binder?
Answer: Its Kd is 27 nM.
